Among the data in publication PMC2173498 are stoichiometry N and stoichiometry N (receptors per cargo) values, retold here.

Targets include IBB-nucleoplasmin (UniProt P52292); M9-βgal (UniProt P09651); Thyroglobulin-NLS; IBB-βgal (UniProt P52292).
Holding throughout (assay): SEC
(In general: SEC sorts molecules by how far they enter the pores of the column.)

Sequence of WT importin β (Q14974 whole entry): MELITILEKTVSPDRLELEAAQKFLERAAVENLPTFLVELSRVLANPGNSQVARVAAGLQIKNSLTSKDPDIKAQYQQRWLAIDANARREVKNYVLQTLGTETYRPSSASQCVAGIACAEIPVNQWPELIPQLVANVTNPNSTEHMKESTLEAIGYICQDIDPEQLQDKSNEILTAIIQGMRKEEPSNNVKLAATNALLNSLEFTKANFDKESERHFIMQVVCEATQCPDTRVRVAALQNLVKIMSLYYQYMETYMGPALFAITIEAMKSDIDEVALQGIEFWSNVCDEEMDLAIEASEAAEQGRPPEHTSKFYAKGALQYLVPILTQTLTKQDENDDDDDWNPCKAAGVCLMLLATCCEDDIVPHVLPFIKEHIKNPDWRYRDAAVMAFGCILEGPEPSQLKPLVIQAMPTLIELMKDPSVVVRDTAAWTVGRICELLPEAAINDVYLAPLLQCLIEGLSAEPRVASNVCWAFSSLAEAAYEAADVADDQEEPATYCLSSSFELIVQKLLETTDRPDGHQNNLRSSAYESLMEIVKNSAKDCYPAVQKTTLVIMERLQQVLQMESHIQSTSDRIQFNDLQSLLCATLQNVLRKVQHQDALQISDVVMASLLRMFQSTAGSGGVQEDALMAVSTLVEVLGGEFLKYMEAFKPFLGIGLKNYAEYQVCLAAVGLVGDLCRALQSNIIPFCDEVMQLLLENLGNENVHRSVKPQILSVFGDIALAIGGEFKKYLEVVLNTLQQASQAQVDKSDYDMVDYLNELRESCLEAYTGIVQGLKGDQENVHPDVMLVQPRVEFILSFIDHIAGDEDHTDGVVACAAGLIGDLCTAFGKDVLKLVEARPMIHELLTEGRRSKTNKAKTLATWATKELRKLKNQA
Sequence of WT transportin (Q92973 whole entry): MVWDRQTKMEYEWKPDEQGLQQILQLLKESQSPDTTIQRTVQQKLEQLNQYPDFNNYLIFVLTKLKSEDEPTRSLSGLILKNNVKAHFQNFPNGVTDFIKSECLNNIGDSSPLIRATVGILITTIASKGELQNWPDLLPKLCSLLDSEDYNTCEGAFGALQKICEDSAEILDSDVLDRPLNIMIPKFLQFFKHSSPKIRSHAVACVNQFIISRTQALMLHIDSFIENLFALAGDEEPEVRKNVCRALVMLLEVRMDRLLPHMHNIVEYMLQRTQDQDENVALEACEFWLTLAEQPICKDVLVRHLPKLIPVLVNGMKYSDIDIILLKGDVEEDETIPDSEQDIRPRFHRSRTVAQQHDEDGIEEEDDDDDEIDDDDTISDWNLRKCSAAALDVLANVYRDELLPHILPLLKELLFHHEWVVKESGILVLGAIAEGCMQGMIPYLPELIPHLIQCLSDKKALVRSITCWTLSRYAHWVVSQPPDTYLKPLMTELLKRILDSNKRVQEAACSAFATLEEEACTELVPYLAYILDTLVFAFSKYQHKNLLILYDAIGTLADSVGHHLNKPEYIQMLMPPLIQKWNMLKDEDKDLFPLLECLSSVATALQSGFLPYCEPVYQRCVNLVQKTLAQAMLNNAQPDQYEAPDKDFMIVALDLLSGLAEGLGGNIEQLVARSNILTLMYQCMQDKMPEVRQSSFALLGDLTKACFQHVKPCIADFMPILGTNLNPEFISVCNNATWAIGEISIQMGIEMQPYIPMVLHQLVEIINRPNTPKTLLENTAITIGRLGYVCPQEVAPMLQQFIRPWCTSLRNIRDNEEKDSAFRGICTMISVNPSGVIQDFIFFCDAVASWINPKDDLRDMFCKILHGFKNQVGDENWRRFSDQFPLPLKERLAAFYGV

In turn, “IBB-nucleoplasmin (from UniProt P52292 1-65; P05221 1-149)” had a stoichiometry N with IBB-nucleoplasmin of 10.
Take M9-βgal (from UniProt P09651-2 255-320): the stoichiometry N with M9-βgal amounted to 4.
Thyroglobulin-NLS: the stoichiometry N with Thyroglobulin-NLS worked out at 2.
For the substance “WT importin β (from UniProt Q14974 1-876) (natural protein)”, the stoichiometry N (receptors per cargo) in the experiment with IBB-nucleoplasmin stood at 5; in the experiment with IBB-βgal, 4.
As to “WT transportin (from UniProt Q92973 1-898) (natural protein)”, the stoichiometry N (receptors per cargo) with M9-βgal came out at 4.

The stoichiometry N is a count of units in the complex or per binding partner.
